According to the Human Domainome abundance scans (Beltran et al. 2025):

B1: Ankyrin-1, residues 1405 to 1484; numbered along this chain, P16157 (parent)
chain: MKMAVISEHLGLSWAELARELQFSVEDINRIRVENPNSLLEQSVALLNLWVIREGQNANMENLYTALQSIDRGEIVNMLE

Variants of: B1
Assay: abundance fitness (aPCA) (normalised: wild type 0, dead -1); higher = more abundant; growth selection in yeast, the domain comes from the species named
Conditions: Homo sapiens

Abundance fitness, by site and new letter:
R30: Y -0.298
I31: A -0.855 | C -0.872 | D -0.918 | F -0.793 | H -1.07 | L -0.149 | M -0.524 | P -0.639 | Q -0.712 | R -0.647 | S -0.938 | T -0.774 | V -0.192 | Y -0.448
R32: C -0.13 | E 0.031 | F 0.069 | G -0.212 | H -0.294 | I -0.124 | K -0.3 | L -0.095 | M -0.35 | N -0.369 | P -0.831 | Q -0.132 | T -0.141 | V -0.041 | W -0.31 | Y -0.43
V33: A 0.096 | C 0.174 | D -0.031 | E -0.014 | F 0.021 | G -0.041 | H -0.043 | I -0.018 | K -0.215 | L -0.001 | M -0.034 | N -0.103 | P -0.764 | Q 0.033 | R 0.021 | S -0.03 | T 0.138 | W -0.073
E34: C -0.257 | D -0.186 | F -0.185 | G -0.166 | H -0.453 | K -0.522 | L -0.241 | M -0.265 | N -0.134 | P -0.992 | R -0.204 | S -0.144 | V -0.308 | W -0.559 | Y -0.565
N35: A -0.304 | C -0.355 | E 0.051 | F -0.219 | G -0.858 | I -0.457 | K -0.064 | L -0.491 | M -0.317 | P -0.866 | Q -0.247 | R -0.068 | S -0.017 | T -0.3 | V -0.171 | W -0.222 | Y -0.42
P36: A 0.016 | C -0.069 | D -0.165 | E -0.066 | G -0.298 | H -0.31 | I -0.459 | K -0.267 | L -0.774 | M -0.064 | N -0.104 | Q 0.123 | T -0.525 | V -0.666 | W -0.219 | Y -0.565
N37: A -0.025 | C -0.314 | D -0.023 | E -0.005 | F -0.152 | G -0.166 | H -0.366 | K 0.023 | L -0.199 | P -1.09 | Q -0.444 | R -0.186 | S -0.064 | T -0.111 | V -0.277 | W -0.36 | Y -0.322
S38: A -0.258 | C -0.099 | D -0.048 | E -0.514 | F -0.345 | K -0.386 | L -0.781 | M -0.353 | N -0.174 | P -0.822 | R -0.478 | T -0.291 | V -0.351 | W -0.754 | Y -0.749
L39: A -0.103 | C 0.066 | D -0.063 | E 0.105 | F -0.068 | G -0.423 | H -0.42 | I -0.41 | M -0.075 | P 0.058 | Q 0.019 | R -0.554 | T 0.116 | W -0.262 | Y 0.004
L40: A -0.11 | C -0.373 | E -0.032 | F 0.015 | G -0.286 | H -0.136 | I 0.061 | K 0.182 | M -0.067 | N -0.372 | P -0.428 | Q -0.029 | R 0.089 | S -0.16 | T -0.081 | V 0.011 | Y -0.189
E41: A -0.113 | C -0.173 | D 0.007 | F -0.28 | G -0.086 | H -0.161
